The values below come from publication PMC4139204, “Insight into the Architecture of the NuRD Complex” (The Journal of Biological Chemistry, 2014).

The subject of assay [1] is RbAp48 binding to GST-H4-(1–48). Description: Competition pulldown: GST-H4-(1–48) pulls down RbAp48 in absence and presence of full-length MTA1. Details: species or system human. The conditions noted are these: GST-H4-(1–48) on glutathione beads, in vitro translated 35S-labeled RbAp48, absence and presence of full-length MTA1. The protocol: The structural data provide clear evidence that histone H4 and MTA1 bind mutually exclusively to RbAp48. […] Competition-binding experiments were performed to assess whether full-length MTA1 might inhibit the interaction of RbAp48 with H3 or FOG1 peptides and to confirm that H4 and MTA1 bind mutually exclusively to RbAp48. GST-H4-(1–48) was expressed in bacteria, immobilized onto glutathione beads, and used to pull down RbAp48 in the absence and presence of full-length MTA1 (Fig. 7A). In a complementary experiment (Fig. 7B), in vitro translated FLAG-RbAp48 was immobilized on anti-FLAG beads and used to pull down MTA1 in the absence and presence of histone H4-(1–48).
FIGURE 7. […] A, pulldown showing the binding of in vitro translated ^35S-labeled RbAp48 to GST-histone H4-(1–48) (immobilized on glutathione beads) in the absence and presence of in vitro translated MTA1. B, pulldown showing the binding of in vitro translated ^35S-labeled MTA1 to FLAG-RbAp48 (immobilized on anti-FLAG beads) in the absence and presence of histone H4-(1–48). C, pulldown assays showing the effect of adding increasing amounts of FOG1-(1–15) peptide to a complex formed between in vitro translated ^35S-labeled FLAG-RbAp48 (immobilized on anti-FLAG beads) and in vitro translated ^35S-labeled full-length MTA1 or MTA1-(530–715). […]

The test system of assay [2] is Nurf55 MUT. Kind of assay: Protein A affinity purification with mutant Nurf55 bait, mass spectrometry. Format: cell-based, D. melanogaster (Dmel-2 cells). The conditions noted are these: for Number of peptides identified, Nurf55 MUT: IgG beads, Dmel-2 cells, mutant E361Q, D362N, E364Q, D365N, L35Y. From the text:
(§1) Full-length Nurf55 (also known as p55 and CAF1) is the D. melanogaster homolog of RbAp46/p48. It was PCR-amplified and cloned into the pDONR221 vector via the BP (recombination and insertion of the att B sequence into the att P recombination site) reaction using standard Gateway Technology (Invitrogen) protocols. Five residues in this plasmid were mutated (L35Y, E361Q, D362N, E364Q, D365N) to create pDONR-Nurf55mut using the QuikChange Lightning Site-directed Mutagenesis kit (Agilent Technologies). The resulting wild-type and mutant clones were verified by sequencing. Primer sequences for the constructs are available on request. The Nurf55 genes were then transferred into destination vectors for the inducible expression of protein A- or GFP-tagged fusion proteins by the LR (insertion of sequences containing att L sites into destination att R sites) reaction according to the manufacturer's instructions.
(§2) D. melanogaster Dmel-2 cell lines stably expressing either tagged wild-type or mutant Nurf55 (containing the L35Y, E361Q, D362N, E364Q, and D365N mutations) were established. Affinity purification of protein A- and GFP-tagged bait and interacting proteins followed by mass spectrometry identification was carried out as previously reported ([39][–][41]).
(§3) Cell lines stably expressing protein A-tagged fusion proteins of either wild-type Nurf55 or the mutant (Nurf55mut) were generated. RbAp46 shares >90 and 85% sequence identity with RbAp48 and NuRF55, respectively. […] Cellular proteins that interact with protein A-tagged Nurf55/Nurf55mut were then isolated by affinity purification on IgG beads and identified by mass spectrometry as described previously ([39], [40]).

For assay [3], the system named is Nurf55 WT. Kind of assay: Protein A affinity purification with wild-type Nurf55 bait, mass spectrometry. Format: cell-based, D. melanogaster (Dmel-2 cells). The conditions noted are these: for Number of peptides identified, Nurf55 WT: IgG beads, Dmel-2 cells; for interaction with Nurf55: wild-type Nurf55.
From the text: as §1, §2, §3

Assay [4] deals with Nurf55 WT. Kind of assay: GFP affinity purification with wild-type Nurf55 bait, mass spectrometry. Format: cell-based, D. melanogaster (Dmel-2 cells). The following applies: anti-GFP nanobody beads, Dmel-2 cells, triplicate, lowest number of unique peptides listed.
From the text: as §1, §2

Assay [5] concerns Nurf55 MUT. Description: GFP affinity purification with mutant Nurf55 bait, mass spectrometry. Format: cell-based, D. melanogaster (Dmel-2 cells). The following applies: anti-GFP nanobody beads, Dmel-2 cells, triplicate, lowest number of unique peptides listed, mutant E361Q, D362N, E364Q, D365N, L35Y.
From the text: as §1, §2

B1: full-length MTA1: in vitro translated full-length MTA1; human MTA1 Uniprot Q13330 (protein, UniProt Q13330 1-715, looked up)
chain: MAANMYRVGDYVYFENSSSNPYLIRRIEELNKTANGNVEAKVVCFYRRRDISSTLIALADKHATLSVCYKAGPGADNGEEGEIEEEMENPEMVDLPEKLKHQLRHRELFLSRQLESLPATHIRGKCSVTLLNETESLKSYLEREDFFFYSLVYDPQQKTLLADKGEIRVGNRYQADITDLLKEGEEDGRDQSRLETQVWEAHNPLTDKQIDQFLVVARSVGTFARALDCSSSVRQPSLHMSAAAASRDITLFHAMDTLHKNIYDISKAISALVPQGGPVLCRDEMEEWSASEANLFEEALEKYGKDFTDIQQDFLPWKSLTSIIEYYYMWKTTDRYVQQKRLKAAEAESKLKQVYIPNYNKPNPNQISVNNVKAGVVNGTGAPGQSPGAGRACESCYTTQSYQWYSWGPPNMQCRLCASCWTYWKKYGGLKMPTRLDGERPGPNRSNMSPHGLPARSSGSPKFAMKTRQAFYLHTTKLTRIARRLCREILRPWHAARHPYLPINSAAIKAECTARLPEASQSPLVLKQAVRKPLEAVLRYLETHPRPPKPDPVKSVSSVLSSLTPAKVAPVINNGSPTILGKRSYEQHNGVDGNMKKRLLMPSRGLANHGQARHMGPSRNLLLNGKSYPTKVRLIRGGSLPPVKRRRMNWIDAPDDVFYMATEETRKIRKLLSSSETKRAARRPYKPIALRQSQALPPRPPPPAPVNDEPIVIED
modifications: full-length
notes: in vitro translated full-length MTA1; human MTA1 Uniprot Q13330
As to B1, the “competition of MTA1 with histone H4 for RbAp48” value in assay [1] was “compete for the same binding surface on RbAp48”.

B2: MTA-like: known subunit of the D. melanogaster NuRD complex (protein)
chain: MATNMYRVGDYVYVETTPNSPYLIRRIEELNKNQTGNVEAKVMCFYRRRDLPNPLVQLADKHQLATAEDSPLATKLKKTWLRTPVSEEQAAQAVLDPSIAALDEERTSPTQTSGGGGSATGNSGSNSSGTSNNNSSSTAIGGGAGGSGGAGGDAEKGEALTSKQRYQIKHRELFLSRQVESIPATQIRGKCSVTLLNETESLQSYLNKDDTFFYCLVFDPNQKTLLADKGEIRVGSRYQCDIPAKLKDTATDDRKLEELESLVWTPEHSLTDRKIDQFLVVSRSIGTFARALDCSSSVKQPSLHMSAAAASRDITLFHAMNILHKHEYSIEESMSSLVPSTGPVLCRDEIEDWSASEANLFEEALEKYGKDFNDIRQDFLPWKTLKQIIEYYYMWKTTDRYVQQKRVKAVEAELKLKQVYIPQYNNNGKGNGTSTKAGGGIYNGTTNGSTDLSSNGKPCESCGTTKSSQWNSVSSGHSTSRLCLSCWEYWRRYGSMKSATKGDAGEGDAKKKSSSAASTPTATLAGLATTPTAVVDLNDDEKISDLTNRQLHRCSIVNCGKEFKLKTHLARHYAQAHGIAISSGSPRPIMKTRTAFYLHTNPMTRVARAICRSIVKPKKAARQSAYAINAMLVKQEFTNRISGKSQAEIKKLLLLKPKDRGSVTKIANRLGAPGSGPHEWLVLTPKDKMPLPAVVSFPKPPKAPDGSLVYDRVPNKSPDVVAVPADKELTIIPTQATSTIRKRAHEDQQLNGTEVTIVPSGPPAKRPNKDPMPSHCPSPEQFAAMMAASGQPLSRHHLNGKQKIAQMARGGNGRKQVISWMDAPDDVYFRANDTHKKTRKILSAVDLRRAARKPWRTLPIKPAAPEPSSRPIESQIVILD
For B2, in the assay with Nurf55 MUT [2], the “Number of peptides identified, Nurf55 MUT” value (shortened to “Number … Nurf55 MUT”) amounted to 0 and the “interaction with Nurf55mut” value is listed as “not observed”. For the same molecule, in the assay with Nurf55 WT [3], the “Number of peptides identified, Nurf55 WT” value is 57 and the “interaction with Nurf55” value is reported as “pulled down by Nurf55”. Further, the “Number of peptides identified, Nurf55 WT” value in the assay on Nurf55 WT [4] worked out at 79. For the same molecule, in the assay on Nurf55 MUT [5], the “Number … Nurf55 MUT” value is given as 6.

B3: Rpd3: known subunit of the D. melanogaster NuRD complex, Rpd3 (dHDAC) (protein)
chain: MQSHSKKRVCYYYDSDIGNYYYGQGHPMKPHRIRMTHNLLLNYGLYRKMEIYRPHKATADEMTKFHSDEYVRFLRSIRPDNMSEYNKQMQRFNVGEDCPVFDGLYEFCQLSAGGSVAAAVKLNKQASEICINWGGGLHHAKKSEASGFCYVNDIVLGILELLKYHQRVLYIDIDVHHGDGVEEAFYTTDRVMTVSFHKYGEYFPGTGDLRDIGAGKGKYYAVNIPLRDGMDDDAYESIFVPIISKVMETFQPAAVVLQCGADSLTGDRLGCFNLTVKGHGKCVEFVKKYNLPFLMVGGGGYTIRNVSRCWTYETSVALAVEIANELPYNDYFEYFGPDFKLHISPSNMTNQNTSEYLEKIKNRLFENLRMLPHAPGVQIQAIPEDAINDESDDEDKVDKDDRLPQSDKDKRIVPENEYSDSEDEGEGGRRDNRSYKGQRKRPRLDKDTNSNKASSETSSEIKDEKEKGDGADGEESTASNTNSNNNSNNKSDNDAGATANAGSGSGSGSGAGAKGAKENNI
Turning to B3, in the assay with Nurf55 MUT [2], the “Number … Nurf55 MUT” value is 0 and the “interaction with Nurf55mut” value is listed as “not observed”. In the assay with Nurf55 WT [3], the “Number of peptides identified, Nurf55 WT” value was 8 and the “interaction with Nurf55” value is “pulled down by Nurf55”. Besides, in the assay with Nurf55 WT [4], the “Number of peptides identified, Nurf55 WT” value was 36. Besides, the “Number … Nurf55 MUT” value with Nurf55 MUT [5] came out at 9.
